Results from patent US20190023785A1 (SHANGHAI JIAOTONG UNIVERSITY, published 2019).

Legend:
[1] = biological target: GLP-1R expressed on CRE-Luc/GLP-1R HEK293 cells
[2] = biological target: T1, hFcRn&b2M protein (human, UniProt P61769 21-119, limits assumed); experiment: binding affinity to hFcRn & b2M at pH 6.0, method not named; pH 6.0; soluble hFcRn & b2M as ligand
T1 construct: also called hFcRn&β2M; human FcRn protein
T1 sequence (chain, as listed by the source limits assumed, chain 1 of 2): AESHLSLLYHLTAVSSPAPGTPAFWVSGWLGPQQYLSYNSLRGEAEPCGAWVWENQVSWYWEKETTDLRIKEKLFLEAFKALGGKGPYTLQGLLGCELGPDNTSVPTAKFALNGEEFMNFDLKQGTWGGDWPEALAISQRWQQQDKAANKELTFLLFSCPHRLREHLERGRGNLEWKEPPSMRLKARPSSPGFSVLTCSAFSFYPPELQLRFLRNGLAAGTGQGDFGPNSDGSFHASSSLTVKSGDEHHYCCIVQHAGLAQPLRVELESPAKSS
T1 sequence (P61769 21-119 limits assumed, chain 2 of 2): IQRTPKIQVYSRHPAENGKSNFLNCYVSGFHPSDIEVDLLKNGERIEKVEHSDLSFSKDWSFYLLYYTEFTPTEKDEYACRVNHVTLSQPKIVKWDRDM

Molecule	EC50, relative luciferase activity in CRE-Luc/GLP-1R HEK293 reporter cells [1] [nM]	Kd [2] [nM]
GLP-1 (peptide)	3.89	
FnAb12 single chain antibody (scFv, Single chain antibody from a phage library) scFv: DIQLTQSPSSLSASVGDRVTLTCQATQDIDNNLNWYQQKPGKAPKLLIYDASNLETGVPSRFSGSGSGTDFTFTISDLQPEDVATYYCQQYYNLPLTFGGGTKVDIKRSRGGGGSGGGGSGGGGSLEMAEVQLVQSGAEVKKPGASVKVSCKASGYTFTSYDINWVRQATGQGLEWMGWMNPNSGNTGYAQKFQGRVTMTRNTSISTAYMELSSLRSEDTAVYYCARGVDLGDGWGQGTLVTVSS		15
